Laboratory results as given in patent US20130336988A1, “METHODS FOR TREATING EARLY STAGE OR MILD NEUROLOGICAL DISORDERS” (NEW YORK UNIVERSITY, priority 2010, published 2013).

T1: sortilin (Homo sapiens, UniProt Q99523)
T1 construct: expressed in transfected cells; host or cells: HEK 293 cells (proBDNF) / 293T cells (proNGF)
T1 sequence (Q99523 78-831): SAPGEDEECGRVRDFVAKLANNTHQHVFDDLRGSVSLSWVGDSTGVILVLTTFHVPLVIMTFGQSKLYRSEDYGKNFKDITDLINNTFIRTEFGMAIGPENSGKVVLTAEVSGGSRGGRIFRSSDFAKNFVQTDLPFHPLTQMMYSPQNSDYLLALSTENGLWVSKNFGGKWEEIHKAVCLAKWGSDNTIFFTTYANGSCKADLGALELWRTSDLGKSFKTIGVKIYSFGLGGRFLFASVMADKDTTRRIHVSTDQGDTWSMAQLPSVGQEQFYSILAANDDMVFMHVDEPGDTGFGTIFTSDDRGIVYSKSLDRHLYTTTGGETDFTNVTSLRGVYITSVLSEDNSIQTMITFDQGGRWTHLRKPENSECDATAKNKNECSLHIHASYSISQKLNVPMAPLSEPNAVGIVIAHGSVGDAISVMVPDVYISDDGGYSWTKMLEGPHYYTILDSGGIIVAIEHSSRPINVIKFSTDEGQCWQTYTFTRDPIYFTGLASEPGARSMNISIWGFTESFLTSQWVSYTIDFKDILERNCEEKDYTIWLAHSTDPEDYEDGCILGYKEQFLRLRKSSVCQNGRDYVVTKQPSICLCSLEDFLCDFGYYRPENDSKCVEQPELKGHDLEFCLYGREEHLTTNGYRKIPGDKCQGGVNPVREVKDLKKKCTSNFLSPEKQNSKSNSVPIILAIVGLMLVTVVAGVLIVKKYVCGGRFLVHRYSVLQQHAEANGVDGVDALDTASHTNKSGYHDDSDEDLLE

B1: proBDNF: murine proBDNF collected from supernatants of transfected 293 cells (protein)
chain: APMKEVNVHGQGNLAYPGVRTHGTLESVNGPRAGSRGLTTTSLADTFEHVIEELLDEDQKVRPNEENHKDADLYTSRVMLSSQVPLEPPLLFLLEEYKNYLDAANMSMRVRRHSDPARRGELSVCDSISEWVTAADKKTAVDMSGGTVTVLEKVPVSKGQLKQYFYETKCNPMGYTKEGCRGIDKRHWNSQCRTTQSYVRALTMDSKKRIGWRFIRIDTSCVCTLTIKRGR

Legend:
[1] = molecular target: T1, sortilin; assay: Co-immunoprecipitation of proNT with sortilin in transfected 293 cells; type: binding; conditions: 293 cells co-transfected with proNT and myc-sortilin; IP-Western blot
Experimental: FIG. 2A-G. ProNTs induce growth cone collapse. (A, B) DIV3 hippocampal neurons transfected with LifeAct-RFP were imaged by time-lapse microscopy before (top panel) and starting approximately 2 min after (bottom panel) treatment with proBDNF (A) or proNGF (B). Actin dynamics stalled upon proNT treatment and subsequently the growth cone collapsed. Time is indicated in (min:sec). Scale bars, 10 μm. (C, D) DIV3 hippocampal cultures were fixed and stained for p75^NTR (C) and SorCS2 (D). Arrows highlight growth cones. Scale bars, 20 μm. (E) Brain sections from 6-week old C57/BL6 mice were stained for SorCS2. DG, dentate gyrus. Arrows highlight expression in dentate granule dendrites. Scale bar, 200 μm. (F) Both sortilin and SorCS2 interact with proBDNF. HEK 293 cells were transfected with proBDNF-HA and myc-sortilin or mycSorCS2, lysates were immunoprecipitated with anti-HA agarose and analyzed by Western blot with indicated antibodies. (G) IP-WB from 293T cells showing interactions between proNGF and sortilin and SorCS2.
The LifeAct sequence (RIEDL, J. et al., Nat Methods 5:605-607 (2008)) was cloned into the pEGFP-N1 backbone (Clontech) using the BglII and BamHI restriction sites. Trio constructs were described previously (FERRARO, F. et al., Mol Biol Cell 18:4813-4825 (2007)), human sortilin cDNA or human SorCS2 cDNA was subcloned into the pcDNA3.1 hygro expression vector (Invitrogen). […]

[2] = system: Rac; assay: Rac activity assay (GST-Pak-CRIB pull-down of activated Rac); type: cell-based, mouse; conditions: mouse E15 DIV2 cortical neurons; 20 min; proBDNF with K252a
Experimental: Rac activity assays were performed as described previously (NEUBRAND, V. E. et al., Journal of Cell Science 123:2111-2123 (2010)). […] Cells were lysed in lysis buffer supplemented with 10 mM MgCl, lysates were cleared by centrifugation at 9000 g for 1 min, and cleared lysates were incubated with GST or GST-Pak-CRIB beads for 30 min at 4° C. Beads were washed and isolated active Rac was analyzed by Western blot. As a control, extra lysates were incubated with 0.1 mM GDP or 0.1 mM GTPγS for 30 min at room temperature before incubation with GST-Pak-CRIB beads. Western blots were analyzed by densitometry using ImageJ software, and isolated active Rac was normalized to the input.
GST and GST-Pak-CRIB proteins were expressed in E. coli BL21DE3 cells at 25° C. for 3 hours. Bacteria were disrupted by incubation with PBS supplemented with lysozyme on ice for 30 min and subsequent addition of 1 mM MgCl2, 0.1% TritonX-100 and 0.1 mg/ml DNAse for an additional 30 min. Bacterial lysates were cleared by centrifugation for 5 min at 3000 g and cleared lysates were incubated with glutathione sepharose. Beads were washed and the purity of the recombinant proteins was analyzed by Coomassie blue staining. 20 μg of sepharose coupled purified protein was used per reaction.

| Molecule | interaction with sortilin (co-immunoprecipitation) [1] | Rac activity after proNT exposure [2] |
| --- | --- | --- |
| proNGF: proneurotrophin precursor of nerve growth factor, produced in Sf9 cells and purified | co-immunoprecipitated with both sortilin and SorCS2 | significant decrease in Rac activity |
| B1 | interact | significant decrease in Rac activity |
